The record followed here is paper PMC4771821, “Structural and spectroscopic characterisation of a heme peroxidase from sorghum” (Journal of Biological Inorganic Chemistry, 2015).

Substrate in the data set: COc1ccccc1O
Nature of the data set: purified protein. The settings on record: heme; Ca2+ raises activity. The class given is biochemical, Sorghum bicolor.

B1: SK 5912 sorghum peroxidase (cationic class III peroxidase) (Sorghum bicolor) (protein)
chain: ARQPPLAPGLSFDFYKRSCPKAESIVRSFVQDAVRRDVGLAAGLLRLHFHDCFVQGCDASVLLDGSATGPGEQQAPPNLTLRPTAFKAINDIHDRLHKECGGTVVSCSDVLALAARDSVVVSGGPSYKVPLGRRDSASFATQQDVLSGLPPPTAAVPALLAVLSKINLDATDLVALSGGHTIGLGHCTSFEDRLFPRPDPTLNATFAGQLRRTCPAKGTDRRTPLDVRTPNAFDNKYYVNLVNREGLFTSDQDLFSNARTRALVDKFARSQRDFFDQFAFSVVKMGQIKVLTGTQGQIRTNCSARNAAGTTMLPWSVSVVEEAADESLGVF
notes: native enzyme isolated from grain
As for B1, the Km is 1.6 ± 0.4 mM.

A word on the Km: it is the concentration of substrate that gives half-maximal velocity.
